B1: TAF13 (natural protein, human (endogenous in HeLa), UniProt Q15543 1-124, looked up)
chain: MADEEEDPTFEEENEEIGGGAEGGQGKRKRLFSKELRCMMYGFGDDQNPYTESVDILEDLVIEFITEMTHKAMSIGRQGRVQVEDIVFLIRKDPRKFARVKDLLTMNEELKRARKAFDEANYGS
B2: TAF10 (natural protein)
chain: not shown

How the values were obtained:
Test in all cases: cryo-EM structure
TAF11 = TAF11 (human (endogenous in HeLa), UniProt Q15544 1-211)
TAF8 = molecular target: T1, TAF8 (human (endogenous in HeLa), UniProt Q7Z7C8 1-310)
T1 sequence (looked up): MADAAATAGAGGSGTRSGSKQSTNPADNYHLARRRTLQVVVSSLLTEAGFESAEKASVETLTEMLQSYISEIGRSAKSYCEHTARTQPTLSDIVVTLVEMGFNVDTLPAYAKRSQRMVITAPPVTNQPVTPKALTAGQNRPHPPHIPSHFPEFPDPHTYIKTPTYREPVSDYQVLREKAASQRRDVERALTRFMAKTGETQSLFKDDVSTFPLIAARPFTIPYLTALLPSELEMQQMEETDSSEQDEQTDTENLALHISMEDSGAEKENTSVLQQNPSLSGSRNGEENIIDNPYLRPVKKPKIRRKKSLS

TAF3 = molecular target: T2, TAF3 (human (endogenous in HeLa), UniProt Q5VWG9 1-929)
T2 sequence (looked up): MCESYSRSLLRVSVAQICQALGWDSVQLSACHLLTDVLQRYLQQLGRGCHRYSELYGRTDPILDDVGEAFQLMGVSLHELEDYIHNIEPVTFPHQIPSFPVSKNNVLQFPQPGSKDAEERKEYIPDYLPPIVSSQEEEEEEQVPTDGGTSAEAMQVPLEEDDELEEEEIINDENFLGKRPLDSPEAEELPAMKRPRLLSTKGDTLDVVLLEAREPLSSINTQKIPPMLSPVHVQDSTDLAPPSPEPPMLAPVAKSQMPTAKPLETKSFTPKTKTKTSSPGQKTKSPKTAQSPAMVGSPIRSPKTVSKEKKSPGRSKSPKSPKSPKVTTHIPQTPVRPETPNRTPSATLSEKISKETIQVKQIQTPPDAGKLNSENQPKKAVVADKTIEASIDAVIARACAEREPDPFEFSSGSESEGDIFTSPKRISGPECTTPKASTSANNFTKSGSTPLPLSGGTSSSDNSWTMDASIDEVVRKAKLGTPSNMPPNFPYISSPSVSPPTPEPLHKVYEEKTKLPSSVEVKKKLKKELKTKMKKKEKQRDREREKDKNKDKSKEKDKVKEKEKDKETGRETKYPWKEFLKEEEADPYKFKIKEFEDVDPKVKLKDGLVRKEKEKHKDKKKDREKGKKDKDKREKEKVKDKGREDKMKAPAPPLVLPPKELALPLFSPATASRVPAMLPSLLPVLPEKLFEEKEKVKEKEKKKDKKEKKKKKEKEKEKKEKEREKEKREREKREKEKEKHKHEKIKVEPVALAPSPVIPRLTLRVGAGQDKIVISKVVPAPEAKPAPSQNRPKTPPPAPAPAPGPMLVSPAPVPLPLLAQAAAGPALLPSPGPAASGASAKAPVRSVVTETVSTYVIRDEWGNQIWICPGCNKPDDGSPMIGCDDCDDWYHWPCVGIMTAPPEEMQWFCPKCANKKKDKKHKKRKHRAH

Chain of TAF11 (Q15544 whole entry): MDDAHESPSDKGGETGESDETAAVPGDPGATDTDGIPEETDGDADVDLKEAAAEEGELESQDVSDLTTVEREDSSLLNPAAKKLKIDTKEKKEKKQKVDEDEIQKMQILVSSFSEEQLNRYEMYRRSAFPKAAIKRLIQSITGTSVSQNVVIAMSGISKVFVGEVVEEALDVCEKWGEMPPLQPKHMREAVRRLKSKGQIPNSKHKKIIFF

binding result (TAF11)	binding result (TAF8)	binding result (TAF3)	Binder
binds	–	–	B1
–	binds	binds	B2
